Laboratory results as given in PMC6941951, “Conditional control of RNA-guided nucleic acid cleavage and gene editing”.

Molecular target: T1, dCas13a (LbuCas13a R1079A/K1080A) (Leptotrichia buccalis, UniProt C7NBY4 1-1159, R1079A;K1080A)
T1 sequence: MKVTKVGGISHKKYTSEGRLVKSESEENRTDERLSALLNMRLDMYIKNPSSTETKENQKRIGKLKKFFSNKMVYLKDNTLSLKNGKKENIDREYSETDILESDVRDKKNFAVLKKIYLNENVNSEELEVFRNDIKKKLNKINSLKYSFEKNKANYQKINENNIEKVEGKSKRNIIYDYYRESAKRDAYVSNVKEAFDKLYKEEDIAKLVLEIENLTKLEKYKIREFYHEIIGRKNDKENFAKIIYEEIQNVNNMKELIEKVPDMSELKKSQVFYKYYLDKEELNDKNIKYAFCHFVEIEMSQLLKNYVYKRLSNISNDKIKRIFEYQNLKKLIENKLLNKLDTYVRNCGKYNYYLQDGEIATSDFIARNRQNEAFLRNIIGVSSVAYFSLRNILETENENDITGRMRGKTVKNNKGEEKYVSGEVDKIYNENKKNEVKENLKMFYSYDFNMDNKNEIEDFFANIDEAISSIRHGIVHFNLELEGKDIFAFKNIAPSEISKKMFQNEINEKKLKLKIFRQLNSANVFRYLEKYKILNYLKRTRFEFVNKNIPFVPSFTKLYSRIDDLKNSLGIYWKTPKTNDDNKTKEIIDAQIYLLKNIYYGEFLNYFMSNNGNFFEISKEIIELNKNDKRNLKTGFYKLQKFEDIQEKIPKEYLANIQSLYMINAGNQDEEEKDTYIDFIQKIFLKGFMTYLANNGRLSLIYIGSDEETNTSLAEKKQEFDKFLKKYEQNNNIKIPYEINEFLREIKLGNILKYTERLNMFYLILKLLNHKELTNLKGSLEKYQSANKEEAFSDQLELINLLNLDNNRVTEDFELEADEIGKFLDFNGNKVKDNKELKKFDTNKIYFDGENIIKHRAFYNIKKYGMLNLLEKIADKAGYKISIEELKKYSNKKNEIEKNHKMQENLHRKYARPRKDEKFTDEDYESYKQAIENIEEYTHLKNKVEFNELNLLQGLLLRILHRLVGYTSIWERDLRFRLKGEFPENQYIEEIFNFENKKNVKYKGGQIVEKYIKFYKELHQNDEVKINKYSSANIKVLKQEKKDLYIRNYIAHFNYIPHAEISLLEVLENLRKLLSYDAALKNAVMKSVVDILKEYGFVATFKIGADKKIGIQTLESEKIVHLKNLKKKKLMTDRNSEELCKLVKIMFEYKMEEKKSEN
Assay: EMSA; no target RNA; dCas13a EMSA: 20 mM HEPES pH 6.8 (25 C), 50 mM KCl, 10 ug/mL BSA, 100 ug/mL yeast tRNA, 0.01% Igepal CA-630, 5% glycerol; 10 min at 37 C; 6% native PAGE at 4 C
Details: protein: recombinant; tags: His6-MBP removed with TEV protease; label: 5'-Cy3; single strand, repeat hairpin

B1: crRNA13a-Cy3 (unmasked) (structured_RNA)
RNA: GAUUUAGACUACCCCAAAAACGAAGGGGACUAAAACUAGAUUGCUGUUCUACCAAGUAAUCCAU
binding result: binds
